Test results published in US20220332804A1 (CSL INNOVATION, published 2022).

Experiments:
[1] = biological target: T1, human C2 P724A (human, UniProt P06681 21-752); assay: SPR, KD relative to WT C2;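 further: biacore SPR at 37 °C, anti-C2 mAbs captured via immobilised goat anti-human IgG, C2 alanine or serine surface mutants as analytes, 1:1 model fitted, double-referenced sensograms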
T1 sequence: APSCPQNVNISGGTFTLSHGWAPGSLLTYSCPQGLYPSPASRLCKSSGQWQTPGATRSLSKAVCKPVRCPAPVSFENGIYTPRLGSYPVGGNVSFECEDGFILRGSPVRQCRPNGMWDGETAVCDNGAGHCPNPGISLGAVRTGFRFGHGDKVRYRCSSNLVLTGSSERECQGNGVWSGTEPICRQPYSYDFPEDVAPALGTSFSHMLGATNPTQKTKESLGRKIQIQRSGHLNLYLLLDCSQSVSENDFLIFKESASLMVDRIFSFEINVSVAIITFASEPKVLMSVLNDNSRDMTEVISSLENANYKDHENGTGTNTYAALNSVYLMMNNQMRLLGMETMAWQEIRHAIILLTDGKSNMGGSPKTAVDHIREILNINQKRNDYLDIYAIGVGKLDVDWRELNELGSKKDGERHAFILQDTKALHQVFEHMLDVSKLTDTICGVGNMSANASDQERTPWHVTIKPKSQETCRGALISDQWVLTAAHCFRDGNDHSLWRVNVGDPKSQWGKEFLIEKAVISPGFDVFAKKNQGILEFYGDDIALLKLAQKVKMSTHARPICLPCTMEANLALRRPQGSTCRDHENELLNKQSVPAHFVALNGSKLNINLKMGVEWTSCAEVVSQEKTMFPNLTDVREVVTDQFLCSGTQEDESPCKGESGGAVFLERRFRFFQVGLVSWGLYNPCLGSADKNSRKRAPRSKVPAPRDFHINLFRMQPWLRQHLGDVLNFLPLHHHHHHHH

[2] = biological target: T2, human C2 A436S (human, UniProt P06681 21-752); assay: SPR, KD relative to WT C2;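 further: biacore SPR at 37 °C, anti-C2 mAbs captured via immobilised goat anti-human IgG, C2 alanine or serine surface mutants as analytes, 1:1 model fitted, double-referenced sensograms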
T2 sequence: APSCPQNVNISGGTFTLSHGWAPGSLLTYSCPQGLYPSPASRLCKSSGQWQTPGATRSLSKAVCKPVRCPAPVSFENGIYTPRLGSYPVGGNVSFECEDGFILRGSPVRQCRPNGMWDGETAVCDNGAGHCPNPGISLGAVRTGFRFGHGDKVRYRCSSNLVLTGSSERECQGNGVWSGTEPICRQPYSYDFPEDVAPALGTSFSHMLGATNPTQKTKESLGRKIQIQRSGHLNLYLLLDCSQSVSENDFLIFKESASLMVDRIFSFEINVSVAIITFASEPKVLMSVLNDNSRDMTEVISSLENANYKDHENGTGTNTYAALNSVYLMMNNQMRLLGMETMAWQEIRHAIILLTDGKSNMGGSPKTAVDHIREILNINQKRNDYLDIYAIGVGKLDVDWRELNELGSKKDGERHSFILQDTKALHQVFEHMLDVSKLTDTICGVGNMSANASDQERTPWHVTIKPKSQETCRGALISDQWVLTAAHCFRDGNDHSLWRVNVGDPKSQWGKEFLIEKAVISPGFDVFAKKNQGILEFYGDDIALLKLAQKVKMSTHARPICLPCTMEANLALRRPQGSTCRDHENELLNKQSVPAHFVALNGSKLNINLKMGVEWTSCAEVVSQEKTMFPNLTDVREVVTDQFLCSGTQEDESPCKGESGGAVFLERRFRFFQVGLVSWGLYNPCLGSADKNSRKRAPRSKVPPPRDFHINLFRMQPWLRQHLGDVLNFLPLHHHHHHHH

[3] = biological target: T3, human C2 E267A (human, UniProt P06681 21-752); assay: SPR, antibody captured, C2 as analyte;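 further: biacore SPR at 37 °C, anti-C2 mAbs captured via goat anti-human IgG on CM5 chips, double-referenced sensorgrams fit to a 1:1 kinetic or steady-state model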
T3 sequence: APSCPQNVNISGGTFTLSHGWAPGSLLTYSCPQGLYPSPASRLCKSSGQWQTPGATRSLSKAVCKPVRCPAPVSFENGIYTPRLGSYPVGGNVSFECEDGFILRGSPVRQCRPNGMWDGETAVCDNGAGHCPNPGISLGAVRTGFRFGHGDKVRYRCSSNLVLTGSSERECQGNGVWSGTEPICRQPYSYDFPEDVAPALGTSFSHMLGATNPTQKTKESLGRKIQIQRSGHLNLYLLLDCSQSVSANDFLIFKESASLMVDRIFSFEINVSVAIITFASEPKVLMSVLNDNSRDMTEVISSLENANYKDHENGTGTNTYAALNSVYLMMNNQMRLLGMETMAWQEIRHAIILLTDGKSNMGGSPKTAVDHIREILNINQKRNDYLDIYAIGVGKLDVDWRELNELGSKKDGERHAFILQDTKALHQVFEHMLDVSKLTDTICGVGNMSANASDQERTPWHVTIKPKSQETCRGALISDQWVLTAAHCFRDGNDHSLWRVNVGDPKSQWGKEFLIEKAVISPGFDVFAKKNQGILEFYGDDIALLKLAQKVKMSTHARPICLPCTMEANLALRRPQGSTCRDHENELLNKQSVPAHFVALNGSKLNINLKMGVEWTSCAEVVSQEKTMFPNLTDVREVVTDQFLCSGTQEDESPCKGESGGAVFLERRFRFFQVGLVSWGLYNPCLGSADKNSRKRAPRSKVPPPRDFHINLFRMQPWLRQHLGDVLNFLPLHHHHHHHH

[4] = biological target: T4, human C2 V465A (human, UniProt P06681 21-752); assay: SPR, antibody captured, C2 as analyte;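 further: biacore SPR at 37 °C, anti-C2 mAbs captured via goat anti-human IgG on CM5 chips, double-referenced sensorgrams fit to a 1:1 kinetic or steady-state model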
T4 sequence: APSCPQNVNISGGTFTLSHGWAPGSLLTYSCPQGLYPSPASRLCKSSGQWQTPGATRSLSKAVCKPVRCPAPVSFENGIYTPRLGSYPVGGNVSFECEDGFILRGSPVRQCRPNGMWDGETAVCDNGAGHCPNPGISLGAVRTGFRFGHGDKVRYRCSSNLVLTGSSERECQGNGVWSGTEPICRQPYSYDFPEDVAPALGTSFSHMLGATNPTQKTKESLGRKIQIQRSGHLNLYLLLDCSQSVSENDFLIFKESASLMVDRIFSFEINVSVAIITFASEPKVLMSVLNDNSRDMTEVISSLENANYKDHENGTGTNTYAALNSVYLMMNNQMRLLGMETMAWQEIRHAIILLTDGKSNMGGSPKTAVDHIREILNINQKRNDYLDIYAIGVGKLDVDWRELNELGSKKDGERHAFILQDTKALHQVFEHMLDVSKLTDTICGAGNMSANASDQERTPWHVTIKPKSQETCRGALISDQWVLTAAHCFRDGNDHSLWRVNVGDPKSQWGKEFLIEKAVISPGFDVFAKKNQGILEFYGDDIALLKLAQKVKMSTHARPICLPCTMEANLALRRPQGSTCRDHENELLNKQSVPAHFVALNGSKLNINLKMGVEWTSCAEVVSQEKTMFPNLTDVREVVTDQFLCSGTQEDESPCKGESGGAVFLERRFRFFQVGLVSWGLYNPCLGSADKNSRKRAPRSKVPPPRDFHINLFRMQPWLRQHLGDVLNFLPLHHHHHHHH

B1: RF16-226 (antibody, human IgG4 S228P, lambda)
heavy: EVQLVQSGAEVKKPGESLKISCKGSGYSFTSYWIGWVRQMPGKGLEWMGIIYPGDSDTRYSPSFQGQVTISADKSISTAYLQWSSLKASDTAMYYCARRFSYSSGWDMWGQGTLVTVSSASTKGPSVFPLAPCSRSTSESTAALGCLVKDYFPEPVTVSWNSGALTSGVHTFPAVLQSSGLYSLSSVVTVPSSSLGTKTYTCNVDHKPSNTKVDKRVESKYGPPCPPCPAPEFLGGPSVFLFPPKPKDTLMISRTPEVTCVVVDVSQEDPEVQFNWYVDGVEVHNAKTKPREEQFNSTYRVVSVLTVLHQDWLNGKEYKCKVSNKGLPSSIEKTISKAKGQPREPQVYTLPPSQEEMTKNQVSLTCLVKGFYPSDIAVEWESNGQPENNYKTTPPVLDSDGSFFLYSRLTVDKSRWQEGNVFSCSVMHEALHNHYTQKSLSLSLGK
light: SYELTQPPSVSVSPGQTARITCSGDALTSKYVAWYQQKSGLAPLLVIYEDTRRPSGIPAKFSGSSSGSVATLTISGAHGDDEADYYCYSTDASGHQRVFGGGTKLTVLSQPKAAPSVTLFPPSSEELQANKATLVCLISDFYPGAVTVAWKADGSPVKAGVETTKPSKQSNNKYAASSYLSLTPEQWKSHRSYSCQVTHEGSTVEKTVAPTECS
notes: pH-dependent anti-C2 antibody from a phage display library; also called WT
B1 showed a Fold diff [1] of 40 fold, a Fold diff [2] of 1 fold and a Kd [3] of 11.2 nM. It also gave a Kd [4] of 17.1 nM.
